Assays:
[1] = target: T1, mouse NaV1.5 expressed in HEK293 cells (mouse, UniProt Q9JJV9 1-2019); experiment: cell-based or functional assay
[2] = target: T2, mouse NaV1.6 expressed in HEK293 cells (mouse, UniProt Q9WTU3 1-1978); experiment: cell-based or functional assay
[3] = target: T3, rat NaV1.8 expressed in HEK293 cells (rat, UniProt Q62968 1-1956); experiment: cell-based or functional assay
[4] = target: T4, human NaV1.7 expressed in HEK293 cells (human, UniProt Q15858 1-1988); experiment: cell-based or functional assay
[5] = target: T5, human NaV1.1 expressed in HEK293 cells (human, UniProt P35498 1-2009); experiment: cell-based or functional assay
[6] = target: T6, rat NaV1.2 expressed in HEK293 cells (rat, UniProt P04775 1-2005); experiment: cell-based or functional assay
[7] = target: T7, human NaV1.3 expressed in HEK293 cells (human, UniProt Q9NY46 1-2000); experiment: cell-based or functional assay
[8] = target: T8, human NaV1.4 expressed in HEK293 cells (human, UniProt P35499 1-1836); experiment: cell-based or functional assay
[9] = target: T1, mouse NaV1.5 expressed in HEK293 cells; experiment: cell-based or functional assay; remark: listed apart in the source
[10] = target: T2, mouse NaV1.6 expressed in HEK293 cells; experiment: cell-based or functional assay; remark: listed apart in the source
[11] = target: T3, rat NaV1.8 expressed in HEK293 cells; experiment: cell-based or functional assay; remark: listed apart in the source
[12] = target: T4, human NaV1.7 expressed in HEK293 cells; experiment: cell-based or functional assay; remark: listed apart in the source
[13] = target: T5, human NaV1.1 expressed in HEK293 cells; experiment: cell-based or functional assay; remark: listed apart in the source
[14] = target: T6, rat NaV1.2 expressed in HEK293 cells; experiment: cell-based or functional assay; remark: listed apart in the source
[15] = target: T7, human NaV1.3 expressed in HEK293 cells; experiment: cell-based or functional assay; remark: listed apart in the source
[16] = target: T8, human NaV1.4 expressed in HEK293 cells; experiment: cell-based or functional assay; remark: listed apart in the source
[17] = target: T4, human NaV1.7 expressed in HEK293 cells; experiment: fraction bound = 1 - I/I0 from whole-cell voltage clamp of hNaV1.7 in HEK293 cells, 30 ms pulses to -10 mV from -120 mV at 10 Hz; mean±S.E.M., n=10
[18] = target: T4, human NaV1.7 expressed in HEK293 cells; experiment: apparent KD from whole-cell voltage clamp of hNaV1.7 in HEK293 cells at 10 Hz; fraction bound Y=1-I/I0 fitted to a one-site binding equation; apparent KD from inhibition of peak sodium current (Y=1-I/IO), one-site fit, n=10

T3 sequence (Q62968 whole entry): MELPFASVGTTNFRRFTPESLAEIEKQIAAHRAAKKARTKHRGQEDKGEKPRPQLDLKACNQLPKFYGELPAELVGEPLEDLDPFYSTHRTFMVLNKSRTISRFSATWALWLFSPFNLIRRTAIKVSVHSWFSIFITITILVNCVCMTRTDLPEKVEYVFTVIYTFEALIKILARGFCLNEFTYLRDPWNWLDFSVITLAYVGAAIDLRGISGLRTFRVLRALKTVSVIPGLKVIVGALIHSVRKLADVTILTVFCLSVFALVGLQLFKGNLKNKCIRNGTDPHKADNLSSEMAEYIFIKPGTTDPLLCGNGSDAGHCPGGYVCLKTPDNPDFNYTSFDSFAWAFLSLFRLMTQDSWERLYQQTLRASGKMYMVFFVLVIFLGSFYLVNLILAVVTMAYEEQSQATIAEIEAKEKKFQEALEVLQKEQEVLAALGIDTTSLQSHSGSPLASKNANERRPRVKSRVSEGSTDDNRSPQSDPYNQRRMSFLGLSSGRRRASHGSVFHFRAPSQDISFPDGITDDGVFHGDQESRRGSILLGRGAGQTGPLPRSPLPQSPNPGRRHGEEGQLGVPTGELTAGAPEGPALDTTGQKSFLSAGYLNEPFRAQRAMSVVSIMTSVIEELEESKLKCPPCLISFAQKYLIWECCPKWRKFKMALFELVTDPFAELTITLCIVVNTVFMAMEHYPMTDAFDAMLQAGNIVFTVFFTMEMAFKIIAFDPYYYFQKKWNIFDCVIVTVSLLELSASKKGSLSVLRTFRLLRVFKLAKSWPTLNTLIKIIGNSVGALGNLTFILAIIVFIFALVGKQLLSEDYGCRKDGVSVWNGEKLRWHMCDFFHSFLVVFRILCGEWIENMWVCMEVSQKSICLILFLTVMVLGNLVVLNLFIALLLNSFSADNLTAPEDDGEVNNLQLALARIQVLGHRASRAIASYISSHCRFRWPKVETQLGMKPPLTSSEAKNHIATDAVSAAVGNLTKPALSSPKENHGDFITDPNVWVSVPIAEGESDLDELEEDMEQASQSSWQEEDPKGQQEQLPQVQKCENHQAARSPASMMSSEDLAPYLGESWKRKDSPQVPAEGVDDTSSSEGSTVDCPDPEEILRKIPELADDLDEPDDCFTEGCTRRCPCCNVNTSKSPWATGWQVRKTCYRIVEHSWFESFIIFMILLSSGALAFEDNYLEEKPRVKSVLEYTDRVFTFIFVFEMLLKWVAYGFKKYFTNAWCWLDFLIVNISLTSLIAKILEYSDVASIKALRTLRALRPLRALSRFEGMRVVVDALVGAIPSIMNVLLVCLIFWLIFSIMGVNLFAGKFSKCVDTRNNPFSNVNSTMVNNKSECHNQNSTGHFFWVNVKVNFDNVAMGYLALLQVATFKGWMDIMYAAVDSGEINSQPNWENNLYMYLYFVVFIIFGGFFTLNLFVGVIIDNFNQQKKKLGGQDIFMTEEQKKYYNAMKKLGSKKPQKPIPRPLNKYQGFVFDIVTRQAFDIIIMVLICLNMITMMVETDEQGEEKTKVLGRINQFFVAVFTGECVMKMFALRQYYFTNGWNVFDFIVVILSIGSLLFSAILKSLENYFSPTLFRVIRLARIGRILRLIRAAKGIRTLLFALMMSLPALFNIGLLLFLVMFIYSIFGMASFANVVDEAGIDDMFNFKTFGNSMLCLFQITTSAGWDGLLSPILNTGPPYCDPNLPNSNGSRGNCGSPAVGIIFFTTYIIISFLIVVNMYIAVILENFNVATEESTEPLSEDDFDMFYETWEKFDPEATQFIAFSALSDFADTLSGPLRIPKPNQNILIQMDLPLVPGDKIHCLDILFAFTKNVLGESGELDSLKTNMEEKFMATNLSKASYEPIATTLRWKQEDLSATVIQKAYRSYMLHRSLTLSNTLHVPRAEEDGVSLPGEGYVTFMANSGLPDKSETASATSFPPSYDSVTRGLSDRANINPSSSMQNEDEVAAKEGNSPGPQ
T2 sequence (Q9WTU3 whole entry): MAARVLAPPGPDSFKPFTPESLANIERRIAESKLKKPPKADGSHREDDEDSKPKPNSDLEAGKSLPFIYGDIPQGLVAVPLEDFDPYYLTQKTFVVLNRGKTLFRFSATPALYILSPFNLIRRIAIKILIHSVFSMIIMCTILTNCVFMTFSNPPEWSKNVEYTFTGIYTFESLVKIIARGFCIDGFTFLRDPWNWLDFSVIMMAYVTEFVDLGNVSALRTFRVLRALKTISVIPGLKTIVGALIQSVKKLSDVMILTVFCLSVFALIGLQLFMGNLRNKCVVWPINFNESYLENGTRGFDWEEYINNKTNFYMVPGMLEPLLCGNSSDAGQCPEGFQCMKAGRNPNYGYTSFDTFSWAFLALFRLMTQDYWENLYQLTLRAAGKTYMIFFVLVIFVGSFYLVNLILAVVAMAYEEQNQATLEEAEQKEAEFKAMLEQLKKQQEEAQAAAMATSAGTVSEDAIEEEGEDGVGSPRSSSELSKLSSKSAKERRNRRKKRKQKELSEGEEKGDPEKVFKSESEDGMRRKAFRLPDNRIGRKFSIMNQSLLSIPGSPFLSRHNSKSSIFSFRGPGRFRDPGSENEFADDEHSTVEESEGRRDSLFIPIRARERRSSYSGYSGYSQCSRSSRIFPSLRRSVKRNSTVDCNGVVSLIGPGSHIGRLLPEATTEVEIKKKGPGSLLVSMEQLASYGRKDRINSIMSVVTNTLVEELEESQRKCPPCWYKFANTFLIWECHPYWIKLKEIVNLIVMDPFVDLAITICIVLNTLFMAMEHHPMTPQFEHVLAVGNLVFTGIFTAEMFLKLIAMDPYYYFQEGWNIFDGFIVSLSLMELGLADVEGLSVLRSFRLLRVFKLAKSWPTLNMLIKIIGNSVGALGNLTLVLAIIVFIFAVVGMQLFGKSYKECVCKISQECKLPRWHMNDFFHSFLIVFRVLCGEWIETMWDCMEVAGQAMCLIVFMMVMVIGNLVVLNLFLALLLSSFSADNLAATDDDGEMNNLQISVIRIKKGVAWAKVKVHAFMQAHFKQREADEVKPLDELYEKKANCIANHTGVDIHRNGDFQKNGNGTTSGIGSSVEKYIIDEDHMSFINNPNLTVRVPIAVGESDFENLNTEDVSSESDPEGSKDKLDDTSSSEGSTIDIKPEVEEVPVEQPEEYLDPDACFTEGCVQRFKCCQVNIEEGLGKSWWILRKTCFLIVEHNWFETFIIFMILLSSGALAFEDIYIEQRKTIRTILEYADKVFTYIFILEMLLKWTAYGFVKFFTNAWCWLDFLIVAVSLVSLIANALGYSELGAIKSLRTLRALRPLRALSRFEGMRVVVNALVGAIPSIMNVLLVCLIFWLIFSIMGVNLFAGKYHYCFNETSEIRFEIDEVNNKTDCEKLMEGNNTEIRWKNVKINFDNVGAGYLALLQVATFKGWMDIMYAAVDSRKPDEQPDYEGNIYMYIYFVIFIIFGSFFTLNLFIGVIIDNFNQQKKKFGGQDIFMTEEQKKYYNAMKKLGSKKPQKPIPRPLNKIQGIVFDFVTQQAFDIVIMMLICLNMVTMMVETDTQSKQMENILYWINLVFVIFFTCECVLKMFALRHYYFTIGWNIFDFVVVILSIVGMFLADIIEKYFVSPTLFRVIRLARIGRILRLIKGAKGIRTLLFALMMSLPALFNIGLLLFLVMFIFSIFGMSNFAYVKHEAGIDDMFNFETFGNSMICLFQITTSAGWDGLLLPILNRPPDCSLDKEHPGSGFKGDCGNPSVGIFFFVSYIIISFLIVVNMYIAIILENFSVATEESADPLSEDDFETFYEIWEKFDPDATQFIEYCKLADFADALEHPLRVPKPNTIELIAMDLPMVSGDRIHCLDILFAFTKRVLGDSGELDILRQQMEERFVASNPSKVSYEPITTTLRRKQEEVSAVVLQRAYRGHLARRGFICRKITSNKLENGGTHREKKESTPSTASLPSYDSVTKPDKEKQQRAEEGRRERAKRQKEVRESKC

B1: 1E16 monoclonal antibody (antibody, IgG1, V domains shown)
VH: QGQMQQSGAELVKPGASVKLSCKTSGFTFSSSYISWLKQKPGQSLEWIAWIYAGTGGTSYNQKFTGKAQLTVDTSSSTAYMQFSSLTTEDSAIYYCARQDGNYRYWYFDVWGAGTTVTVSS
VL: ETTVTQSPASLSMAIGEKVTIRCITSTDIDDDMNWYQQKPGEPPKLLISEGNTLRPGVPSRFSSSGYGTDFVFTIENMLSEDVADYYCLQSDNLPLTFGGGTKLEIK
notes: also called 1E16 mAb; 1E16 Ab
[1]
  IC50, sodium current at 2 Hz: > 5 µM
[2]
  fold decrease in efficacy relative to NaV1.7: ~2 fold
  fold decrease in potency relative to NaV1.7: ~200 fold
[3]
  IC50, sodium current at 2 Hz: > 5 µM
[4]
  IC50 of inhibition of human NaV1.7 currents at 0.1 Hz: 0.107 µM
  IC50 of inhibition of human NaV1.7 currents at 10 Hz: 0.0167 µM
[5]
  IC50, sodium current at 2 Hz: > 5 µM
[6]
  IC50, sodium current at 2 Hz: > 5 µM
[7]
  IC50, sodium current at 2 Hz: > 5 µM
[8]
  IC50, sodium current at 2 Hz: > 5 µM
[9]
  IC50 (µM), sodium current at 2 Hz: 5.6 µM
  Maximum inhibition (%): 19.1%
  Selectivity for Nav1.7: 830 fold
[10]
  IC50 (µM), sodium current at 2 Hz: 6.3 µM
  Maximum inhibition (%): 44.2%
  Selectivity for Nav1.7: 404 fold
[11]
  IC50 (µM), sodium current at 2 Hz: 5.2 µM
  Maximum inhibition (%): 22.1%
  Selectivity for Nav1.7: 666 fold
[12]
  IC50 (µM), sodium current at 2 Hz: 0.0307 µM
  Maximum inhibition (%): 86.9%
  Selectivity for Nav1.7: 1 fold
[13]
  IC50 (µM), sodium current at 2 Hz: 6.3 µM
  Maximum inhibition (%): 20.7%
  Selectivity for Nav1.7: 862 fold
[14]
  IC50 (µM), sodium current at 2 Hz: 9 µM
  Maximum inhibition (%): 18.7%
  Selectivity for Nav1.7: 1360 fold
[15]
  IC50 (µM), sodium current at 2 Hz: 8.7 µM
  Maximum inhibition (%): 16.2%
  Selectivity for Nav1.7: 1520 fold
[16]
  IC50 (µM), sodium current at 2 Hz: 7.9 µM
  Maximum inhibition (%): 21.5%
  Selectivity for Nav1.7: 1040 fold
[17]
  EC50 (read off the curve): ~0.02 µM
[18]
  Kd: 0.0229 µM

— patent publication US20160237153A1 (DUKE UNIVERSITY, published 2016)
